Measurements reported in the supplement of paper PMC9112550, “Optimization of the antimicrobial peptide Bac7 by deep mutational scanning” (BMC Biology, 2022).

Test system: Escherichia coli TOP10
Assay: shrunken log2 fold change of peptide-encoding DNA abundance (4.5 h post-induction vs induction); higher = less antimicrobial activity (less host growth inhibition)
Details: time post-induction: 4.5 h; library: site-saturation at positions 5, 18, 19, 20
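Note: peptides expressed intracellularly from a pBAD plasmid library in pooled LB shake-flask culture, induced with 0.3% L-arabinose, DNA abundance read by NGS, three biological replicates, DESeq2 with apeglm shrinkage.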

Sequence	shrunken log2 fold change
RRIRHRPPRLPRPRPRPHLDPRP	-0.214
RRIRGRPPRLPRPRPRPLYYPRP	-0.13
RRIRQRPPRLPRPRPRPKHEPRP	0.164
RRIRWRPPRLPRPRPRPNCNPRP	-0.101
RRIRERPPRLPRPRPRPSGYPRP	-0.0887
RRIRMRPPRLPRPRPRPISNPRP	-0.0517
RRIRERPPRLPRPRPRPKWWPRP	0.397
RRIRHRPPRLPRPRPRPRVHPRP	0.0785
RRIRYRPPRLPRPRPRPQKMPRP	-0.295
RRIRIRPPRLPRPRPRPDAYPRP	-0.0729
RRIRERPPRLPRPRPRPMTIPRP	-0.155
RRIRKRPPRLPRPRPRPDMTPRP	1.34
RRIRVRPPRLPRPRPRPCWPPRP	0.237
RRIRQRPPRLPRPRPRPGLGPRP	0.492
RRIRWRPPRLPRPRPRPHMMPRP	-0.349
RRIRFRPPRLPRPRPRPQFRPRP	-0.174
RRIRNRPPRLPRPRPRPSHPPRP	0.186
RRIRQRPPRLPRPRPRPGSNPRP	0.127
RRIRCRPPRLPRPRPRPIGSPRP	-0.139
RRIRGRPPRLPRPRPRPWTAPRP	0.172
RRIRDRPPRLPRPRPRPTMEPRP	0.335
RRIRTRPPRLPRPRPRPKAPPRP	0.317
RRIRNRPPRLPRPRPRPMIKPRP	-0.456
RRIRCRPPRLPRPRPRPIVHPRP	-0.7
RRIRSRPPRLPRPRPRPYEEPRP	-0.932

Sequence	shrunken log2 fold change
RRIRTRPPRLPRPRPRPQNIPRP	-0.587
RRIRNRPPRLPRPRPRPAHMPRP	-0.167
RRIRDRPPRLPRPRPRPAFAPRP	0.928
RRIRFRPPRLPRPRPRPNQAPRP	0.138
RRIRFRPPRLPRPRPRPCQHPRP	-0.397
RRIRDRPPRLPRPRPRPHFNPRP	-0.381
RRIRSRPPRLPRPRPRPNRFPRP	-0.0804
RRIRVRPPRLPRPRPRPKPCPRP	0.205
RRIRCRPPRLPRPRPRPDKGPRP	0.0974
RRIRCRPPRLPRPRPRPSWTPRP	-0.532
RRIRWRPPRLPRPRPRPFHLPRP	-0.818
RRIRIRPPRLPRPRPRPFQYPRP	-0.0506
RRIRTRPPRLPRPRPRPPQAPRP	0.121
RRIRWRPPRLPRPRPRPNQPPRP	0.198
RRIRPRPPRLPRPRPRPHKGPRP	0.0224
RRIRARPPRLPRPRPRPDAPPRP	0.942
RRIRCRPPRLPRPRPRPKYEPRP	-0.403
RRIRMRPPRLPRPRPRPTVHPRP	0.102
RRIRLRPPRLPRPRPRPHGGPRP	-0.234
RRIRTRPPRLPRPRPRPRKWPRP	0.215
RRIRSRPPRLPRPRPRPINFPRP	-0.168
RRIRNRPPRLPRPRPRPERWPRP	0.699
RRIRHRPPRLPRPRPRPGLVPRP	0.0437
RRIRQRPPRLPRPRPRPWTYPRP	0.0804
RRIRKRPPRLPRPRPRPMQRPRP	0.744

Sequence	shrunken log2 fold change
RRIRIRPPRLPRPRPRPGMCPRP	-0.238
RRIRERPPRLPRPRPRPQQAPRP	0.01
RRIRMRPPRLPRPRPRPHYIPRP	-0.335
RRIRHRPPRLPRPRPRPRSMPRP	-0.241
RRIRARPPRLPRPRPRPSHQPRP	-0.138
RRIRPRPPRLPRPRPRPEFSPRP	-0.0202
RRIRVRPPRLPRPRPRPRPFPRP	0.351
RRIRARPPRLPRPRPRPADQPRP	0.755
RRIRFRPPRLPRPRPRPAEEPRP	0.105
RRIRRRPPRLPRPRPRPRMMPRP	0.351
RRIRFRPPRLPRPRPRPMTPPRP	-0.202
RRIRWRPPRLPRPRPRPYDAPRP	-0.189
RRIRSRPPRLPRPRPRPRHCPRP	0.101
RRIRDRPPRLPRPRPRPYGHPRP	-0.012
RRIRQRPPRLPRPRPRPPLPPRP	0.424
RRIRQRPPRLPRPRPRPNTGPRP	-0.766
RRIRQRPPRLPRPRPRPHDMPRP	-0.364
RRIRSRPPRLPRPRPRPCYSPRP	-0.839
RRIRARPPRLPRPRPRPLLIPRP	-0.0375
RRIRHRPPRLPRPRPRPTYNPRP	-0.758
RRIRTRPPRLPRPRPRPKAEPRP	-0.000916
RRIRLRPPRLPRPRPRPMGKPRP	-0.353
RRIRHRPPRLPRPRPRPQWYPRP	-0.0605
RRIRERPPRLPRPRPRPMIMPRP	-0.00163
RRIRFRPPRLPRPRPRPHPWPRP	-0.212

Sequence	shrunken log2 fold change
RRIRGRPPRLPRPRPRPINDPRP	-0.211
RRIRIRPPRLPRPRPRPISWPRP	-0.392
RRIRGRPPRLPRPRPRPQASPRP	1.03
RRIRPRPPRLPRPRPRPDPTPRP	0.166
RRIRARPPRLPRPRPRPHKNPRP	0.0543
RRIRDRPPRLPRPRPRPIWFPRP	-0.192
RRIRARPPRLPRPRPRPNSVPRP	0.0162
RRIRYRPPRLPRPRPRPWAMPRP	-0.00232
RRIRERPPRLPRPRPRPFCMPRP	-0.126
RRIRDRPPRLPRPRPRPSESPRP	-0.000946
RRIRHRPPRLPRPRPRPIYCPRP	-0.0143
RRIRWRPPRLPRPRPRPTCFPRP	0.0863
RRIRFRPPRLPRPRPRPLQRPRP	0.071
RRIRGRPPRLPRPRPRPIQRPRP	0.0933
RRIRYRPPRLPRPRPRPGTSPRP	-0.0454
RRIRKRPPRLPRPRPRPETFPRP	-0.00962
RRIRNRPPRLPRPRPRPECDPRP	0.203
RRIRGRPPRLPRPRPRPTIEPRP	0.673
RRIRIRPPRLPRPRPRPHHPPRP	-0.629
RRIRDRPPRLPRPRPRPIGGPRP	0.0266
RRIRRRPPRLPRPRPRPNYCPRP	-0.25
RRIRYRPPRLPRPRPRPHPRPRP	-0.392
RRIRLRPPRLPRPRPRPVIIPRP	-0.242
RRIRLRPPRLPRPRPRPFCIPRP	-0.22
RRIRCRPPRLPRPRPRPLGSPRP	-0.423

Sequence	shrunken log2 fold change
RRIRHRPPRLPRPRPRPYSVPRP	-0.481
RRIRCRPPRLPRPRPRPASNPRP	-0.342
RRIRFRPPRLPRPRPRPTQQPRP	0.312
RRIRKRPPRLPRPRPRPPFDPRP	0.586
RRIRFRPPRLPRPRPRPVAEPRP	0.256
RRIRFRPPRLPRPRPRPPWFPRP	0.033
RRIRNRPPRLPRPRPRPNGAPRP	-0.0902
RRIRKRPPRLPRPRPRPSSDPRP	0.246
RRIRCRPPRLPRPRPRPNVHPRP	-0.532
RRIRERPPRLPRPRPRPTDFPRP	-0.13
RRIRNRPPRLPRPRPRPIYMPRP	-0.473
RRIRGRPPRLPRPRPRPTPFPRP	0.629
RRIRARPPRLPRPRPRPLNRPRP	0.0549
RRIRWRPPRLPRPRPRPTLIPRP	0.0335
RRIRARPPRLPRPRPRPMSPPRP	0.342
RRIRIRPPRLPRPRPRPGVVPRP	-0.47
RRIRHRPPRLPRPRPRPHQRPRP	0.0129
RRIRYRPPRLPRPRPRPWDPPRP	-0.0966
RRIRARPPRLPRPRPRPQFHPRP	-0.116
RRIRTRPPRLPRPRPRPYSDPRP	-0.148
RRIRYRPPRLPRPRPRPAPPPRP	0.417
RRIRERPPRLPRPRPRPVVQPRP	-0.104
RRIRLRPPRLPRPRPRPEVPPRP	0.0129
RRIRSRPPRLPRPRPRPWIAPRP	-0.181
RRIRQRPPRLPRPRPRPQKPPRP	0.0718

Sequence	shrunken log2 fold change
RRIRDRPPRLPRPRPRPWACPRP	0.0329
RRIRNRPPRLPRPRPRPEQWPRP	-0.0114
RRIRSRPPRLPRPRPRPILTPRP	-0.125
RRIRMRPPRLPRPRPRPWGVPRP	0.187
RRIRHRPPRLPRPRPRPWIWPRP	-0.0845
RRIRWRPPRLPRPRPRPHYPPRP	-0.225
RRIRSRPPRLPRPRPRPSNSPRP	-0.145
RRIRVRPPRLPRPRPRPPWAPRP	0.537
RRIRARPPRLPRPRPRPSWMPRP	-0.131
RRIRERPPRLPRPRPRPGFSPRP	-0.196
RRIRFRPPRLPRPRPRPMDWPRP	0.314
RRIRLRPPRLPRPRPRPNNDPRP	-0.763
RRIRQRPPRLPRPRPRPSEIPRP	-0.0356
RRIRQRPPRLPRPRPRPFPRPRP	-0.122
RRIRNRPPRLPRPRPRPKKSPRP	0.129
RRIRMRPPRLPRPRPRPGDWPRP	1.33
RRIRERPPRLPRPRPRPQTNPRP	-0.554
RRIRRRPPRLPRPRPRPDNIPRP	0.123
RRIRHRPPRLPRPRPRPGIWPRP	0.139
RRIRFRPPRLPRPRPRPKDVPRP	-0.00433
RRIRCRPPRLPRPRPRPYLYPRP	-1.01
RRIRARPPRLPRPRPRPGKTPRP	0.312
RRIRTRPPRLPRPRPRPEPRPRP	0.482
RRIRHRPPRLPRPRPRPQWIPRP	-0.031
RRIRKRPPRLPRPRPRPLVEPRP	0.734
